Series [1] deals with HtrACj S197A, expressed without the predicted signal peptide (residues 17-472), protease-inactive mu (Campylobacter jejuni (strain 81-176)). Kind of series: cryo-EM structure.
Series [2] concerns the target HtrACj S197A, proteolytically inactive variant (plasmid pUZCj5) (Campylobacter jejuni (strain NCTC11168)) (UniProt Q0P928). The experiment in a line: SEC; Superose 12HR10/30, 50 mM Na2HPO4/NaH2PO4 pH 7.4, 300 mM NaCl, room temperature, 41 µM HtrA, no substrate; S/A mutants purified in presence of urea and refolded.
Series [3] has the same target. The description is as above. The source holds these as a separate data set.
For series [4] the target is unchanged. Kind of series: SEC; Superose 12HR10/30, 50 mM Na2HPO4/NaH2PO4 pH 7.4, 300 mM NaCl, room temperature, 41 µM HtrA, no substrate; proteins purified under native conditions without refolding step. A general note: In gel filtration, larger molecules generally elute earlier.
For series [5], the target named is HtrACj wild type, proteolytically active (plasmid pUZCj4) (Campylobacter jejuni (strain NCTC11168)) (UniProt Q0P928). The experiment in a line: casein zymography (non-reducing SDS-PAGE); 50 ng purified HtrA in Laemmli buffer on 10% SDS-PAGE gels with 0.1% casein, non-reducing, renatured in 2.5% Triton X-100, developed overnight at 37°C.
The target is the same in series [6]. Kind of series: SEC; Superose 12HR10/30, 50 mM Na2HPO4/NaH2PO4 pH 7.4, 300 mM NaCl, room temperature; 41 µM HtrA pre-incubated with 41 µM β-casein (molar ratio 1:1) for 10 min at 37°C.
Series [7] has the same target. The experiment in a line: SEC; Superose 12HR10/30, 50 mM Na2HPO4/NaH2PO4 pH 7.4, 300 mM NaCl, room temperature, 41 µM HtrA, no substrate; proteins purified under native conditions without refolding step.
The target in series [8] is HtrAHp S221A, proteolytically inactive variant of HtrA from H. pylori 26695 (plasmid pUZ3) (Helicobacter pylori (strain 26695)). Kind of series: SEC; Superose 12HR10/30, 50 mM Na2HPO4/NaH2PO4 pH 7.4, 300 mM NaCl, room temperature, 41 µM HtrA, no substrate; S/A mutants purified in presence of urea and refolded.
Series [9] concerns the molecule itself. The series is described as above.

Values joined by “and” are separate entries in the source; they are usually repeats but may differ in a detail not shown here. Equal entries are not always repeated.

Results on 5 molecules are retold here after article PMC7524362, “Functional analysis and cryo-electron microscopy of Campylobacter jejuni serine protease HtrA” (Gut Microbes, 2020).

The term stoichiometry N denotes a count of units in the complex or per binding partner.

For “HtrACj S197A, expressed without the predicted signal peptide (residues 17-472), protease-inactive mu (enzyme)”, the stoichiometry N in series [1] was 12. Regarding “HtrACj S197A, proteolytically inactive variant (plasmid pUZCj5) (from UniProt Q0P928 1-472) (enzyme)”, the stoichiometry N in series [2] was above 12; in series [3] it was 12; in series [4], 12.

For the molecule “HtrACj wild type, proteolytically active (plasmid pUZCj4) (from UniProt Q0P928 1-472) (enzyme)”, the values for the stoichiometry N in series [5], in [6] and in series [7] were 3, 6 and 6, respectively. With “HtrAHp S221A, proteolytically inactive variant of HtrA from H. pylori 26695 (plasmid pUZ3) (enzyme)”, in series [8], the stoichiometry N is 3 and 6.

B1: HtrAEc S210A, proteolytically inactive variant of HtrA/DegP from E. coli (plasmid pJS17) (enzyme, UniProt P0C0V0 27-474, looked up)
chain: AETSSATTAQQMPSLAPMLEKVMPSVVSINVEGSTTVNTPRMPRNFQQFFGDDSPFCQEGSPFQSSPFCQGGQGGNGGGQQQKFMALGSGVIIDADKGYVVTNNHVVDNATVIKVQLSDGRKFDAKMVGKDPRSDIALIQIQNPKNLTAIKMADSDALRVGDYTVAIGNPFGLGETVTSGIVSALGRSGLNAENYENFIQTDAAINRGNAGGALVNLNGELIGINTAILAPDGGNIGIGFAIPSNMVKNLTSQMVEYGQVKRGELGIMGTELNSELAKAMKVDAQRGAFVSQVLPNSSAAKAGIKAGDVITSLNGKPISSFAALRAQVGTMPVGSKLTLGLLRDGKQVNVNLELQQSSQNQVDSSSIFNGIEGAEMSNKGKDQGVVVNNVKTGTPAAQIGLKKGDVIIGANQQAVKNIAELRKVLDSKPSVLALNIQRGDSTIYLLMQ
notes: also called S/A mutant of HtrAEc
On to B1, for which the “stoichiometry N” value in [9] came out at 6.
